This is an account of results in the RNAGym collection of RNA variant scans (doi:10.7554/elife.90254).

Sequences and labels used below:
B1: LINE1-full (parent)
chain: UACGUAGGUGGUUUUCCCCUGAUAGUGCUAAGGGGGCCUGGAAGUUUGGACUGGGCAGAGCUCAACACAGCGUGGCAAAGUGGCUGUGGCUAGACUGCCUCUCUGGAUUCCUCGUCACUCAGCAGGGCAUCUCUGAGAGAAAUGCC

In the series the parent is B1. Briefly: self-cleavage, relative activity (ratio to wild type); higher = more cleavage; in vitro, sequencing; the parent is a self-cleaving ribozyme.
As for U108C G139A, the self-cleavage was determined as 0. To C113U A124U belongs 1.3; to U108G A140G, 0.29. With U112A U115A the figure was 1.4. To U109C U115G belongs 1.04; to A107U U112C, 1.84. Consider U115C A124U, for which the self-cleavage was found to be 1.69. With U115C A124G the figure was 1.13; with A117C C128U, 1.3.

As for U115A A138U, the self-cleavage worked out at 1.77. As to U115A A138G, the self-cleavage worked out at 1.29. With C118U A124U the figure was 1.04; with C110A U130C, 1.04. With U115C A141G, the self-cleavage stood at 1.76. Take C116U A117G: the self-cleavage is 1.61. To C111U G114A belongs 1.12.

For the variant U115C G139U, the self-cleavage was 1.79.

As for A117G U119A, the self-cleavage is 1.17. To A117G U119C belongs 1.47. With A117G U119G, the self-cleavage came out at 1.87.

As for U109C C110A, the self-cleavage turned out to be 1.55.

Take U112C U134G: the self-cleavage came to 1.34. For the variant C111U U130A, the self-cleavage was 0.93. For the variant U112C G137U, the self-cleavage was 0.88. U112C G137A: the self-cleavage was found to be 1.17.

In the case of U112A A117U, the self-cleavage was 1.36.

Consider U115C C146G, for which the self-cleavage was determined as 1.93. To U115C C146U belongs 1.31; to U108C U132C, 1.83. With U108C U132A the figure was 2.04; with U115A A136U, 1.52. On to U108C C128U, for which the self-cleavage was 1.78. To C116U A142G belongs 1.27; to A117G A129C, 1.93; to A117G A129G, 1.32. For U115C G144C, the self-cleavage came out at 2.13. With G114A U132C the figure was 1.45.

For the variant U112C A117U, the self-cleavage turned out to be 1.39.

Regarding U112C A117G, the self-cleavage amounted to 1.42.

C118A A142G: the self-cleavage turned out to be 1.41. Regarding G114A C116U, the self-cleavage was 0.76.

As for U115C U134A, the self-cleavage was found to be 0.9.

As for U109C C128A, the self-cleavage amounted to 1.47.

Consider U112C G122C, for which the self-cleavage came out at 1.18. With U112C G122U, the self-cleavage amounted to 1.86. To A117U A121G belongs 1.81. Consider A117U A121U, for which the self-cleavage stood at 1.57. With C113A C145U the figure was 1.25; with A117U U130A, 1.55.

As for A117U U130C, the self-cleavage was 1.58. To U109A U134G belongs 1.25. With U109A U134C the figure was 1.67; with U109A U134A, 0.68. With U109A C111U the figure was 1.56; with G114U A136U, 1.23. In the case of G114U A136G, the self-cleavage turned out to be 1.49. To U109C G122A belongs 1.81; to U115C G126A, 1.85.

Take U112C U143C: the self-cleavage came to 1.54. To U112C U143A belongs 1.59; to U112C U130G, 1.56; to U112C U130C, 1.61. Regarding U109C A136G, the self-cleavage turned out to be 1.75. To U108A C133A belongs 1.42; to U109G, 0.63; to U109A, 1.31.

U109C: the self-cleavage came out at 1.2. With A117G A141G the figure was 1.71; with A117G A141U, 1.69; with C110A A121U, 1.32. With C113U U143A, the self-cleavage was determined as 1.1. With G114C A142G the figure was 1.78; with U108C U134A, 2.21; with U108C U134C, 1.57. To U108C G125A belongs 1.22; to A107U U132A, 1.88. With C110U A142G, the self-cleavage is 2.11. With G114A A124C the figure was 1.62; with G114A A124G, 1.5.

Consider U115C A117U, for which the self-cleavage was determined as 1.79.

Consider C111U C116A, for which the self-cleavage came out at 1.37. To A117U U132A belongs 1.32; to C110U C146U, 1.82. With C116A A138G the figure was 1.52.

Regarding U109G U112C, the self-cleavage was determined as 0.19. Regarding A107U U143A, the self-cleavage was found to be 1.48. With U112C A129G the figure was 1.42; with U109C A140U, 1.15; with U109C A140G, 0.48. With C118U U130C the figure was 0.97; with C113A A117U, 1.03. With U112A G114A the figure was 0.38. Turning to A107U G144A, the self-cleavage was found to be 1.79. In the case of U108G U143C, the self-cleavage is 1.14.

For G114C U115C, the self-cleavage stood at 1.24. To C118A A138U belongs 1.47; to C110A G122A, 0.9; to G114A U130C, 1.42. Regarding U109A C145G, the self-cleavage was found to be 0.98. To U115A A124G belongs 0.93; to A117G G125U, 1.47; to A117G G125A, 0.99. In the case of A117C A136G, the self-cleavage worked out at 1.79. With G114A U143C the figure was 1.02; with G114A U143G, 1.41; with G114A U143A, 0.68. To U109A U132C belongs 1.37.

For the variant A117U C131U, the self-cleavage stood at 1.21. With C111U A121C the figure was 1.54; with U109C A117G, 1.7; with U108A A129U, 1.92. With U112A U132C the figure was 1.42; with C118A G125U, 1.03; with U115A C145U, 1.3. To G114A A140U belongs 1.55. For the variant G114A A140G, the self-cleavage was determined as 1.14. Take G114A A140C: the self-cleavage was determined as 1.27. To G114U A141U belongs 1.61.

As to U112C A140U, the self-cleavage is 1.29.

Regarding A117G G144A, the self-cleavage came out at 0.73. To U115A U134C belongs 1.49; to U112C A141U, 1.47. With U115A U130C the figure was 1.62; with C116U A124G, 1.11. With U108A A124U the figure was 1.35; with C110A U115C, 1.47; with C110A A124G, 1.62. As for A117C G139A, the self-cleavage turned out to be 1.65. With C113A A140G the figure was 1.06; with U112A A142C, 1.46. With U112A A142G the figure was 1.57; with C118A U132C, 1. With G114A A136G the figure was 1.28.

As to A117U G126U, the self-cleavage amounted to 1.11. To U115C A136G belongs 1.83. For U108C U130A, the self-cleavage came to 2.75. To A117U C146G belongs 0.92. To C110A A141G belongs 1.84; to U115A A141U, 0.53; to U108G U119C, 2.59. For the variant A117G C120U, the self-cleavage was found to be 2.18. With A117U G137C the figure was 2.13. Take C118A A129G: the self-cleavage came out at 1.1. With A117U A124G the figure was 1.3.

Take U115A A117G: the self-cleavage was 1.61.

For U115G A121G, the self-cleavage came to 1.62. Turning to C118G U132A, the self-cleavage was 1.21. With U109C A124U the figure was 1.64. U109C A124C: the self-cleavage was 1.41. With C111U U134C the figure was 2.26.

As to U112C C113U, the self-cleavage amounted to 1.28. With C113U G135A the figure was 1.18; with C113U U132C, 0.89. Regarding U109G A140G, the self-cleavage was found to be 0.21. To A117U A140G belongs 1.43; to U109C G137A, 1.45. With U112C U119C the figure was 1.6; with U109C A129U, 1.97. Turning to U109C A129G, the self-cleavage worked out at 1.3.

Regarding U109A G139A, the self-cleavage is 1.49. Turning to U112C U115A, the self-cleavage stood at 1.39. Regarding C113U G144A, the self-cleavage worked out at 0.31. With U115A A121G the figure was 1.47; with U115A A121U, 1.5; with U112A U143A, 1.38. Turning to U112C U132C, the self-cleavage turned out to be 1.28. To U108A U115A belongs 0.6.
